From PMC3574636

Target: microtubules (tubulin purified from bovine brain) (bovine) (UniProt Q6B856)
Test: co-sedimentation

microtubules (tubulin purified from bovine brain) (bovine), sequence (Q6B856 whole entry, looked up): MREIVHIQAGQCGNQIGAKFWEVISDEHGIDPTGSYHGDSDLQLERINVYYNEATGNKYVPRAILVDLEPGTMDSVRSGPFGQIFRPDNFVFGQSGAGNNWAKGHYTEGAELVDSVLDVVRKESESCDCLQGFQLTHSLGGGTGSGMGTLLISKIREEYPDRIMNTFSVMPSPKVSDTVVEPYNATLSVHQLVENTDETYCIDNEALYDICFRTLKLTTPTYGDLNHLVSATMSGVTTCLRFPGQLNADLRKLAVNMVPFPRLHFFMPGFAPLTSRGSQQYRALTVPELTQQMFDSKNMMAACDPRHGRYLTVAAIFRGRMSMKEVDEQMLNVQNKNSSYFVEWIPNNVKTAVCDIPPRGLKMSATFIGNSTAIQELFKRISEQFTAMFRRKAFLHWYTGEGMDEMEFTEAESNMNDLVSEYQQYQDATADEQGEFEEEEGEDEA

active fraction by microtubule pulldown (no CK2): 20%
percent of motor bound to microtubules (after CK2, 3:1 kinase:motor): 80%
Substance: native kinesin (kinesin-1, conventional kinesin) purified from bovine brain (complex)
